Measured values from patent publication US12662540B2, “Compositions and methods for inhibition of MICA/B shedding” (DANA-FARBER CANCER INSTITUTE, INC., priority 2017, dated 2026).

Tests used:
B16F10-MICA cells = assay: B16F10 metastasis model in immunocompetent mice; type: in vivo, C57BL/6 mice; conditions: anti-asGM1, anti-NK1.1 or anti-CD8β
Description: The B16F10 cells were transduced with the luciferase-based lentiviral vector to express MICA. B16F10-MICA cells (5×10^5) were injected intravenously into C57BL/6 mice through the tail vein. Fewer tumor cells (4×10^5) were injected into NK cell-deficient mice given that the absence of NK cells results in a very large number of metastases. 7C6 or isotype control antibodies (MPC-11 or C1184, BioXcell, which have mIgG2b and mIgG2a isotypes, respectively) were administered intraperitoneally on days 1, 2, 7 and 10 at a dose of 200 μg per mouse. Antibody blockade and depletion were performed as described previously (24). For antibody-based depletion of CD8 T cells or NK cells, 100 μg per mouse of anti-CD8 (5358, BioXcell), anti-NK1.1 (PK136, BioXcell), and anti-asialo(as)GM1 (Wako Chemicals) were given on days −1, 0, and 7. For antibody blockade, anti-NKG2D (HMG2D, BioXcell) or control IgG (MOPC-21) were given at 200 μg per mouse on days −1, 0, 5, 7 and 10. Blood samples were collected at multiple time points by retro-orbital bleeding under isoflurane anesthesia. Mice were euthanized by CO2 inhalation, lungs were perfused with PBS and fixed in formalin solution, and the number of superficial metastases was counted under a stereomicroscope. Histology was performed by the Rodent Histopathology Core of the Dana-Farber/Harvard Cancer Center using lungs that had not been perfused with PBS.
Macrophages were depleted by intravenous injection of 0.2 ml clodronate liposomes (Encapsula NanoSciences LLC). In the humanized and B16F10-MICA metastasis models, 0.2 ml of clodronate liposomes or control liposomes were injected i.v. (on the same day of tumor cell inoculation and then once weekly).

[1] = system: murine tumor cell lines (B16F10, CT26, Neuro-2a) expressing full-length MICA or MICB; assay: Shed and surface MICA/MICB in murine tumor cell lines transduced with full-length MICA or MICB; type: cell-based, mouse; conditions: B16F10-MICA cells, 24 hours
Excerpt: B16F10, CT26, Neuro-2a, EL4 and RMA-S cell lines were transduced with lentiviral vector pHAGE-CMV-fullEF1a. MICA (allele 009) cDNA or other inserts were placed between NotI and BamHI cloning sites, 3′ to the EF1α promoter and 5′ to the IRES. ZsGreen or luciferase cDNAs were cloned 3′ to the IRES as fluorescence or bioluminescence reporters, respectively. The vector with the ZsGreen reporter was used to compare expression of cDNAs encoding full length MICA, full-length MICB and secreted MICA (Neuro-2a, RMA-S and/or B16F10 cell lines). CT26, EL4 and B16F10 cell lines were transduced with the vector that supported expression of the luciferase reporter. […]
Tumor cells (5×10^4 or 1×10^5 per well, depending on the cell line) were cultured for 24 to 72 hours in 96-well plates (flat-bottom plates for adherent cell lines, U-bottom plates for suspension cell lines). […] MICA or control antibodies were added at different concentrations, and shed MICA/B was then detected in supernatants by ELISA using the Human MICA ELISA kit (Ab59569, Abcam) or Human MICB DuoSet ELISA kit (DY1599, R&D Systems), using the procedures recommended by the manufacturers. […]
MICA and MICB were detected on the cell surface by the PE-conjugated anti-MICA/B antibody (clone 6D4, 320906, Biolegend). […] All samples were acquired in a BD LSR Fortessa flow cytometer, and analyzed by FlowJo V10 software.

CT26-MICA = assay: CT26 metastasis model; type: in vivo, Balb/c mice; conditions: antibody days 1, 2, 7, 14; count day 21
Description: (§1) Balb/c wild type mice were injected intravenously with 1×10^6 CT26-MICA, and treated with 7C6-mIgG2b or MPC-11 (isotype) administered intraperitoneally on days 1, 2, 7, and 14. Euthanasia was performed on day 21, followed by lung perfusion with 30% Indian ink through the trachea and fixation in Fekete's fixative. That procedure stains the lungs in black, while the metastases remain white, enabling counting of metastases under a stereomicroscope (24).
as §1, with “stereomicroscope.” for “stereomicroscope (24).”

RMA-S cell lines = assay: 51Cr release assay with murine NK cells against RMA-S cell lines; type: cell-based, mouse
Description: Murine NK cells were isolated from the spleen of C57BL/6 Rag1^−/− mice. These cells were enriched by negative selection using a Mouse NK Cell Isolation Kit (130-096-892, Miltenyi Biotech). Cells were then incubated with PE-conjugated anti-NK1.1 and Pacific Blue-conjugated anti-CD3 (Biolegend), and NK cells were sorted using a BD FACS Aria. Purity after sorting was ˜99%. NK cells used for cytotoxicity assays were isolated from mice that had received an intraperitoneal injection of 200 μg Poly(I:C) (InvivoGen) 1 day prior to NK cell isolation.
Target cells were labeled for 1 hour with 100 μCi of ^51[Cr] per 2×10^6 cells in 0.2 ml of media. Subsequently, cells were washed and plated in V-bottom 96-wells plates (5,000 target cells per well). To determine the experimental release, NK cells were added in an equal volume, but at different ratios. […]
For experiments shown in FIGS. 1E, 10, and 13E antibodies were added at the time of the killing assay. […] At the end of the incubation period, plates were centrifuged (2000 rpm, 5 minutes), part of the supernatant was collected, mixed with scintillation fluid, and radioactivity was quantified using a MicroBeta2 reader (Perkin Elmer). Specific killing was calculated using the following formula: 100×(Experimental release−Spontaneous release)/(Maximum release−Spontaneous release).

B1: 7C6-mIgG2b: 7C6 with parental murine IgG2b Fc (antibody)
VH: QIQLVQSGPELKKPGETVKVSCKASGYMFTNYAMNWVKQAPEKGLKWMGWINTHTGDPTYADDFKGRIAFSLETSASTAYLQINNLKNEDTATYFCVRTYGNYAMDYWGQGTSVTVSSAKTTAPSVYPLAPVCGDTTGSSVTLGCLVKGYFPEPVTLTWNSGSLSSGVHTFPAVLQSDLYTLSSSVTVTSS
VL: DIQMTQTTSSLSASLGDRVTISCSASQDISNYLNWYQQKPDGTVKLLIYDTSILHLGVPSRFSGSGSGTDYSLTISNLEPEDIATYYCQQYSKFPRTFGGGTTLEIK
therapeutic activity against lung metastases after NK cell or CD8 T cell depletion (B16F10-MICA cells): NK cell (anti-asGM1 or anti-NK1.1) but not CD8 T cell (anti-CD8β) depletion abrogated the therapeutic activity | ability to inhibit MICA shedding, 7C6 with distinct Fc regions [1]: does not alter the ability of MICA antibody to inhibit MICA shedding | activity against CT26-MICA lung metastases (CT26-MICA): has activity against CT26-MICA tumor cells | murine NK cell-mediated cytotoxicity against tumor cells expressing full-length MICA (RMA-S cell lines; full-length MICA): enhances NK cell-mediated cytotoxicity | murine NK cell-mediated cytotoxicity against tumor cells that release MICA by exocytosis (RMA-S cell lines; secreted MICA): not against tumor cells that release MICA by exocytosis
